T1: CaRho1 (Candida Rho1-like GTPase)
T1 chain: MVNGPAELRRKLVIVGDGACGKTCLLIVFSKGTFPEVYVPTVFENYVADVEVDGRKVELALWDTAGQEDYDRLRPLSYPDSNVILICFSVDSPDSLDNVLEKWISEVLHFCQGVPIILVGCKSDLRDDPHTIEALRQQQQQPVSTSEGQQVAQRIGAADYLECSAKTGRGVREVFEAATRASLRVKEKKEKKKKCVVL

T2: peptide GKKKKKKSKTKCVIM (C-terminus of K-ras4B)
T2 chain: GKKKKKKSKTKCVIM

T3: peptide RVKEKKEKKKKCVVL (C-terminus of CaRho1)
T3 chain: RVKEKKEKKKKCVVL

T4: peptide GCVLL
T4 chain: GCVLL

T5: peptide LQARRGKKKSGCLVL (C-terminus of huRhoA)
T5 chain: LQARRGKKKSGCLVL

B1: Candida GGTase (CaGGTase), geranylgeranyl protein transferase I purified from Candida cells (protein)
chain 1: MTDSKYDYSDITPVDINTEEPQICQILYDEDYKQIMGLLLALMKAEEYSERALHITELGINELASHYTIWIYRFNILKNLPNRNLYDELDWCEEIALDNEKNYQIWNYRQLIIGRIMELNNNDFDPYREFLILEAMLSSDPKNHHVWSYRKWLVDTFDLHNDAKELSFVDKVIDTDLKNNSAWSHRFFLLFSKKHLATDNTIDEELNYVKDKIVKCPQNPSTWNYLLGIHERFDRSITQLEEFSLQFVDLEKDQVTSSFALETLAKIYTQQKKYNEARTVYDLLKSKYDPIRSNFWDYQISKLTSV
chain 2: MNQLLINKHEKFFNRCLIGLPSTAQSEDSNKLAIIYFCLHGLQLIQKFQFTNQELIYYRNFIINQFMIENNQIISFRSTHYFQKTNQKYDCPNLSSTLFALYNLLILKSPYHTIINRKKIMNFLCKCQVKDGINKGGFVPTLYYDEENGDYKQYGEPDLRVCYMALLIRHLMKYDDNNNNNNREDSNETDIDLISLQQFILDRININGGFSSTIMDESHLGFTFCAIASLKLLNYPLEKLKSTKEWLIHRQVDYPENLYPKDGNGDNYEYYRNIDIGGFNGRENKLSDTCYSWWCTGSLYNIDVNFIKLVDLNKAEDYLLNKTQNQLFGGFGRDPDSTPDPMHSYLALASLSLWNHEKFALQEINPILTITKELYQFFKEEIKY
B2: S. cerevisiae GGTase (ScGGTase) (protein)
chain 1: MEEYDYSDVKPLPIETDLQDELCRIMYTEDYKRLMGLARALISLNELSPRALQLTAEIIDVAPAFYTIWNYRFNIVRHMMSESEDTVLYLNKELDWLDEVTLNNPKNYQIWSYRQSLLKLHPSPSFKRELPILKLMIDDDSKNYHVWSYRKWCCLFFSDFQHELAYASDLIETDIYNNSAWTHRMFYWVNAKDVISKVELADELQFIMDKIQLVPQNISPWTYLRGFQELFHDRLQWDSKVVDFATTFIGDVLSLPIGSPEDLPEIESSYALEFLAYHWGADPCTRDNAVKAYSLLAIKYDPIRKNLWHHKINNLN
chain 2: MCQATNGPSRVVTKKHRKFFERHLQLLPSSHQGHDVNRMAIIFYSISGLSIFDVNVSAKYGDHLGWMRKHYIKTVLDDTENTVISGFVGSLVMNIPHATTINLPNTLFALLSMIMLRDYEYFETILDKRSLARFVSKCQRPDRGSFVSCLDYKTNCGSSVDSDDLRFCYIAVAILYICGCRSKEDFDEYIDTEKLLGYIMSQQCYNGAFGAHNEPHSGYTSCALSTLALLSSLEKLSDKFKEDTITWLLHRQVSSHGCMKFESELNASYDQSDDGGFQGRENKFADTCYAFWCLNSLHLLTKDWKMLCQTELVTNYLLDRTQKTLTGGFSKNDEEDADLYHSCLGSAALALIEGKFNGELCIPQEIFNDFSKRCCF
B3: Recombinant glutathione-S-transferase (GST)-Rho1, preloaded with GTPγS (protein)
chain: MSQQVGNSIRRKLVIVGDGACGKTCLLIVFSKGQFPEVYVPTVFENYVADVEVDGRRVELALWDTAGQEDYDRLRPLSYPDSNVVLICFSIDLPDSLENVQEKWIAEVLHFCQGVPIILVGCKVDLRNDPQTIEQLRQEGQQPVTSQEGQSVADQIGATGYYECSAKTGYGVREVFEAATRASLMGKSKTNGKAKKNTTEKKKKKCVLL
B4: Recombinant glutathione-S-transferase (GST)-Rho1, preloaded with GDP (protein)
chain: MSQQVGNSIRRKLVIVGDGACGKTCLLIVFSKGQFPEVYVPTVFENYVADVEVDGRRVELALWDTAGQEDYDRLRPLSYPDSNVVLICFSIDLPDSLENVQEKWIAEVLHFCQGVPIILVGCKVDLRNDPQTIEQLRQEGQQPVTSQEGQSVADQIGATGYYECSAKTGYGVREVFEAATRASLMGKSKTNGKAKKNTTEKKKKKCVLL

Legend:
[1] = molecular target: T1, CaRho1 (Candida Rho1-like GTPase)
[2] = molecular target: T2, peptide GKKKKKKSKTKCVIM (C-terminus of …)
[3] = molecular target: T3, peptide RVKEKKEKKKKCVVL (C-terminus of …)
peptide GCVLL = molecular target: T4, peptide GCVLL
[4] = molecular target: T5, peptide LQARRGKKKSGCLVL (C-terminus of …)
[5] = molecular target: 1,3-β-glucan synthase (GS) complex, P38631
Chain of 1,3-β-glucan synthase (GS) complex, P38631 (P38631 whole entry, looked up, one chain of several): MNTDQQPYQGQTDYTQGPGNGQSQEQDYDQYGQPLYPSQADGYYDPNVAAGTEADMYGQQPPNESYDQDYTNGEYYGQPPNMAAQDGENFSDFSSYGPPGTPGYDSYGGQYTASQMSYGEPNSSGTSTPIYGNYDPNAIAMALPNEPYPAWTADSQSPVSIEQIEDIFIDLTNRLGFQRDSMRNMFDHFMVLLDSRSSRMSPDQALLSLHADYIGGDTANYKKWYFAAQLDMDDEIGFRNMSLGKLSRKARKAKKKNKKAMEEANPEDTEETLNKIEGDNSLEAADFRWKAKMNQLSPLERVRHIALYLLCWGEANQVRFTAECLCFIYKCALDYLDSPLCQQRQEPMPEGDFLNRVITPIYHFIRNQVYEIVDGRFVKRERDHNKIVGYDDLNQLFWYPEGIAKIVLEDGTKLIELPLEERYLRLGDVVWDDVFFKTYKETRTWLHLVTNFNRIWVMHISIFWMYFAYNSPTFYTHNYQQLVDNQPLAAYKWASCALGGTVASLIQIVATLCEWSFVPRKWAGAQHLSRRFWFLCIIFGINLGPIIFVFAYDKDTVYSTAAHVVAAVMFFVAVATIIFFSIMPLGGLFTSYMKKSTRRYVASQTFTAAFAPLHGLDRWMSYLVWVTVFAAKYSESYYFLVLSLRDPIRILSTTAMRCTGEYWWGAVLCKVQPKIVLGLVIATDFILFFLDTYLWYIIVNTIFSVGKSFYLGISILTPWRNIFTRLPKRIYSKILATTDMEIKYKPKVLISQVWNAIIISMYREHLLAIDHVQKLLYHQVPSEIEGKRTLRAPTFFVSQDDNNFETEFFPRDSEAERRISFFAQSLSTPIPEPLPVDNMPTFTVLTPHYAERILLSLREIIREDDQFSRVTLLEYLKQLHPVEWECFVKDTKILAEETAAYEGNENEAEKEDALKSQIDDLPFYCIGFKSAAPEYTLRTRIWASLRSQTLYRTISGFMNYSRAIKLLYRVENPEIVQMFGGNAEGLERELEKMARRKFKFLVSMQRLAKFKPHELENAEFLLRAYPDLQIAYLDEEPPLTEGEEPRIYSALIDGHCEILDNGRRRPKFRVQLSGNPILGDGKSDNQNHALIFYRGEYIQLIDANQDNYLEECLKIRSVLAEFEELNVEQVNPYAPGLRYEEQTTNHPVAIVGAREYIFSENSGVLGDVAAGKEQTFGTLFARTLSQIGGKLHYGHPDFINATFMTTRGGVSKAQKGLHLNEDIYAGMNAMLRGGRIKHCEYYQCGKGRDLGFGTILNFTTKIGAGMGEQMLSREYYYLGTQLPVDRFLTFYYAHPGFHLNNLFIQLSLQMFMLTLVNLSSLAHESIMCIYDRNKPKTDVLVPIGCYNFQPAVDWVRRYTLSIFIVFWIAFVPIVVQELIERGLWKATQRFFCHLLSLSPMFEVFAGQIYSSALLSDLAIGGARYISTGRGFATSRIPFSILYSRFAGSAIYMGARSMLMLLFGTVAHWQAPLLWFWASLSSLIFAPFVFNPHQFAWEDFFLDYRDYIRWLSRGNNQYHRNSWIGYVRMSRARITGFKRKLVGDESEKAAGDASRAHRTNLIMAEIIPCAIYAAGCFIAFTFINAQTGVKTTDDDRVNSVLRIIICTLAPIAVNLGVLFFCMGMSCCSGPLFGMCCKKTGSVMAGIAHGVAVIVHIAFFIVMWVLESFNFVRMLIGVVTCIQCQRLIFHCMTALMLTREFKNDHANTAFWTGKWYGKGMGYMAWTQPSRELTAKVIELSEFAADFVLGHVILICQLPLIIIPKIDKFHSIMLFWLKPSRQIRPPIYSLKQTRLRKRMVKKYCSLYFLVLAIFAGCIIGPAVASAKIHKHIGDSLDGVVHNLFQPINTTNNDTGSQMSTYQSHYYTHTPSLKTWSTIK

Chain of human RhoA, P61586 (P61586 whole entry): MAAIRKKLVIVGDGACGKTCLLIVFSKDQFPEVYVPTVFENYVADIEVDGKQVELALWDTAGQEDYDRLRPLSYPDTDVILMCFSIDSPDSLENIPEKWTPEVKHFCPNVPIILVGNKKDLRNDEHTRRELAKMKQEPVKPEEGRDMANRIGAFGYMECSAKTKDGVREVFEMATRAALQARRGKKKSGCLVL
Chain of H-RasCVLL, P01112 (P01112 whole entry, looked up): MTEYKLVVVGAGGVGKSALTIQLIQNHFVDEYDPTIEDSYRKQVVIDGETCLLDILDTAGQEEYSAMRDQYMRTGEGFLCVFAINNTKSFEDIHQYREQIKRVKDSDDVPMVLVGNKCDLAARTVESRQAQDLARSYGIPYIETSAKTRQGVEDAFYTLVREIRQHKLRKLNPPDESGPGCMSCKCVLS

Protein	Km [1] [µM]	Km (H-RasCVLL, P01112)	Km (human RhoA, P61586)	prenylation of the peptide [2]	prenylation of the peptide [3]	prenylation of the peptide (peptide GCVLL)	prenylation of the peptide [4]	GS activity in rho1-3 membrane fractions at 37° C. [5]	GS activity in rho1-3 membranes complemented with GST-Rho1 [5]
B1	250	NS*	NS	+	+	–	–	–	–
B2	80	NS	< 100 µM	+	+	Human GGTase can prenylate peptides that lack the polylysine region, whereas the fungal GGTases can not	+	–	–
B3	–	–	–	–	–	–	–	GS activity was restored fully by the addition of GTPγS-bound GST-Rho1	–
B4	–	–	–	–	–	–	–	–	GTPγS could be replaced with GTP, but not GDP
